This data set concerns the molecule itself. The data set is described as follows: 15N-1H HSQC NMR (line broadening and signal loss).

B1: SARS-CoV-2 Nsp9, wild type, purified recombinant (natural protein, UniProt P0DTD1 4141-4253, looked up)
chain: NNELSPVALRQMSCAAGTTQTACTDDNALAYYNTTKGGRFVLALLSDLQDLKWARFPKSDGTGTIYTELEPPCRFVTDTPKGPKVKYLYFIKGLNNLNRGMVLGSLAATVRLQ
modifications: 15N or 13C,15N isotope labelling in the NMR experiments
Consider B1, for which the binding result was “binds”.
